Our source for the critical nucleus size n* (nucleated growth polymerization model), order of the self-association reaction (initial rates) and percent monomer (3 μM OmpA325, 450 mM urea, 30 minutes) values is publication PMC3169180.

Experiment [1] has as its target N-terminal barrel domain of OmpA (OmpA171, residues 1–171) (E. coli K12 MG1655). As to the kind of experiment: circular dichroism kinetics. A general note: Circular dichroism is widely used to follow secondary structure.
The target in experiment [2] is T1, mature form of full-length OmpA (OmpA325) (E. coli K12 MG1655), P0A910.
T1 chain: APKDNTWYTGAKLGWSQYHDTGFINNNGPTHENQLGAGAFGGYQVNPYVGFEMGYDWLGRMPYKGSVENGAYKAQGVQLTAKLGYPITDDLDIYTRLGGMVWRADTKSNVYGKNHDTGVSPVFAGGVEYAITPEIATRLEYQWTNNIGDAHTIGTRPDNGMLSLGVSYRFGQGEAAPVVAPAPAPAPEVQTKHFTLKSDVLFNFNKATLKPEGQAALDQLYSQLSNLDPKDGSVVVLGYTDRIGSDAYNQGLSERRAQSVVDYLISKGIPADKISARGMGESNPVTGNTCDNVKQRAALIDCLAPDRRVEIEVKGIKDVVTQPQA
Description: AUC. The settings on record: remark: other sources report otherwise.

Take “N-terminal barrel domain of OmpA (OmpA171, residues 1–171) (domain or fragment)”: in experiment [1], the critical nucleus size n* (nucleated growth polymerization model) was found to be 2.6 molecules and the order of the self-association reaction (initial rates) was 3.2.

B1: mature form of full-length OmpA (OmpA325), P0A910 22-346 (natural protein)
chain: APKDNTWYTGAKLGWSQYHDTGFINNNGPTHENQLGAGAFGGYQVNPYVGFEMGYDWLGRMPYKGSVENGAYKAQGVQLTAKLGYPITDDLDIYTRLGGMVWRADTKSNVYGKNHDTGVSPVFAGGVEYAITPEIATRLEYQWTNNIGDAHTIGTRPDNGMLSLGVSYRFGQGEAAPVVAPAPAPAPEVQTKHFTLKSDVLFNFNKATLKPEGQAALDQLYSQLSNLDPKDGSVVVLGYTDRIGSDAYNQGLSERRAQSVVDYLISKGIPADKISARGMGESNPVTGNTCDNVKQRAALIDCLAPDRRVEIEVKGIKDVVTQPQA
B1 came in with a percent monomer (3 μM OmpA325, 450 mM urea, 30 minutes) in experiment [2] of 75%.
